Residue numbers refer to the chain shown, from its start. In names and notes the source's numbering stands. Values belong to the binder of their own block, whether it stands above or below them.
Columns and labels:
1-27 CD3-Fc [1] = target: T1, 1-27 CD3-Fc (human); experiment: ELISA, captured 1-27 CD3-Fc
T1 construct: also called 27 aa huCD3E; human CD3 epsilon (aa 1-27)-Fc fusion protein

[2] = target: T2, 1-27 CD3-EpCAM, human 27 mer (human; cynomolgus); experiment: FACS 293-HEK transfectant
T2 construct: On transfected cells; also called N-terminal amino acids 1-27 of human CD3 epsilon fused to Flag tagged cynomolgus EpCAM
T2 chain: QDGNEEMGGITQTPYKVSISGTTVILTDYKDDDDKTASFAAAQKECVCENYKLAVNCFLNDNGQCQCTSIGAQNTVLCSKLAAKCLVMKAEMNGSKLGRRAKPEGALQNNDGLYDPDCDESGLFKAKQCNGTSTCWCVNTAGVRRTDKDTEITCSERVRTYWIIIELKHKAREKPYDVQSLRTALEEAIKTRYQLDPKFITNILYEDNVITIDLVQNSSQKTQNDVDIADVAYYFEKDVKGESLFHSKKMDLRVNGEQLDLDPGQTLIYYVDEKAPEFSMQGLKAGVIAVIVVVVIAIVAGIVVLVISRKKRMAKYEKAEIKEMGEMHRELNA

[3] = target: T3, 1-27 CD3-EpCAM, swine 27 mer (domestic swine (Sus scrofa); cynomolgus); experiment: FACS on 293-HEK transfectants
T3 construct: Negative control, on transfected cells; also called 1-27 N-terminal CD3 epsilon of swine fused to cynomolgus EpCAM
T3 chain: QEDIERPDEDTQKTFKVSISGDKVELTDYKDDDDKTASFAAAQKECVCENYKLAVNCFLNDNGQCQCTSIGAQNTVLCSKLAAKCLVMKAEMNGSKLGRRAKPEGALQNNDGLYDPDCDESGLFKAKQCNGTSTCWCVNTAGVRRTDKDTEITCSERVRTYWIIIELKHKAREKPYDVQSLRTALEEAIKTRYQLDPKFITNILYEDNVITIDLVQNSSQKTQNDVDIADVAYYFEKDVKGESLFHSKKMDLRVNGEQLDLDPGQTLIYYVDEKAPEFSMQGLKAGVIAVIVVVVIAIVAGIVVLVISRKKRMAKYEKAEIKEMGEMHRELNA

1-27 CD3-Fc [4] = target: T1, 1-27 CD3-Fc; experiment: SPR (Biacore), 1-27 CD3-Fc immobilised
[5] = target: T4, human CD3 (native, on HPB-ALL cells or human PBMC) (human, UniProt P07766 23-207); experiment: FACS HPB-ALL
T4 construct: whole, on cells; Other chains of the CD3/TCR complex are present on the cells; also called human CD3 epsilon; native CD3 on intact T cells
T4 sequence (P07766 23-207): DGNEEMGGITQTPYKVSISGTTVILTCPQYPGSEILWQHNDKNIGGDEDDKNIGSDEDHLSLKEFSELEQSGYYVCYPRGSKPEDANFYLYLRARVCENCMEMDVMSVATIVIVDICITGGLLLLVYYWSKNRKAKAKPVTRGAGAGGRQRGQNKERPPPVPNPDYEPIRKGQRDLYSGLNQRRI

binding result (1-27 CD3-Fc [1]): binds
binding result [2]: binds
binding result [3]: no binding
B1: E2M HLP (scFv)
scFv: EVQLLESGGGLVQPGGSLKLSCAASGFTFNGYAMNWVRQAPGKGLEWVARIRSKYNNYATYYADSVKERFTISRDDSKNTAYLQMNNLKTEDTAVYYCVRHRNFGNSYLSWFAYWGQGTLVTVSSGGGGSGGGGSGGGGSELVVTQEPSLTVSPGGTVTLTCRSSTGAVTSGYYPNWVQQKPGQAPRGLIGATDMRPSGTPARFSGSLLGGKAALTLSGVQPEDEAEYYCALWYSNRWVFGGGTKLTVL
notes: crude periplasmic preparation, Flag and His6 tagged

binding result (1-27 CD3-Fc [1]): binds
B2: A2J HLP (scFv)
scFv: B1 scFv with G31V, E68K, R102G, F112W
notes: as for B1

Kd (1-27 CD3-Fc [4]): 0.249 µM
B3: EGFR-21-63 LH × A2J HLP (bispecific antibody)
chain: DIVLTQSPASLPVSLGQRATISCRASQSVSSSTYSYIHWYQQKPGQPPKLLITYASNLESGVPARFSGSGSGTDFTLDIHPVEEDDSSTYYCQHSWEIPFTFGSGTKLEIKGGGGSGGGGSGGGGSQVQLQQSGPDLVKPGASVKMSCKASGHTFTDCVIIWVKQRAGQGLEWIGQIYPGTGRSYYNEIFKGKATLTADKSSNTVHIQLSSLTSEDSAVYFCALSTLIHGTWFSYWGQGTLVTVSSGGGGSEVQLLESGGGLVQPGGSLKLSCAASGFTFNVYAMNWVRQAPGKGLEWVARIRSKYNNYATYYADSVKKRFTISRDDSKNTAYLQMNNLKTEDTAVYYCVRHGNFGNSYLSWWAYWGQGTLVTVSSGGGGSGGGGSGGGGSELVVTQEPSLTVSPGGTVTLTCRSSTGAVTSGYYPNWVQQKPGQAPRGLIGATDMRPSGTPARFSGSLLGGKAALTLSGVQPEDEAEYYCALWYSNRWVFGGGTKLTVL
notes: also called EGFR LH × A2J HLP

Kd (1-27 CD3-Fc [4]): 2.46 µM
B4: EGFR-21-63 LH × E2M HLP (bispecific antibody)
chain: B3 chain with V282G, K319E, G353R, W363F
notes: also called EGFR LH × E2M HLP

binding result [5]: binds
B5: MCSP-G4 HLP × E2M HLP (bispecific antibody)
chain: QVQLVQSGAEVKRPGASMKVSCKASGYTFTNYYIHWVRQAPGQGLEWMGWINPNSGATNYAQKFQGRVTMTRDTSTSTVYMELSSLRSEDTAVYYCAKSWVSWFASWGQGTLVTVSSGGGGSGGGGSGGGGSELVMTQSPDSLAVSLGERATINCKSSQSVLNSSNNRNYLAWYQQKPGQPPKLLIYWASTRESGVPDRFSGSGSGTDFTLTISGLQAEDVAVYYCQQHYSTPFTFGPGTKVDIKSGGGGSEVQLLESGGGLVQPGGSLKLSCAASGFTFNGYAMNWVRQAPGKGLEWVARIRSKYNNYATYYADSVKERFTISRDDSKNTAYLQMNNLKTEDTAVYYCVRHRNFGNSYLSWFAYWGQGTLVTVSSGGGGSGGGGSGGGGSELVVTQEPSLTVSPGGTVTLTCRSSTGAVTSGYYPNWVQQKPGQAPRGLIGATDMRPSGTPARFSGSLLGGKAALTLSGVQPEDEAEYYCALWYSNRWVFGGGTKLTVL

Source: patent US20100150918A1 (MICROMET, published 2010)
